Reference: paper PMC12256852, “Reversible tuning of membrane sterol levels by cyclodextrin in a dialysis setting” (Biophysical Journal, 2025)

Biological target: the molecule itself
Assay: FRET or BRET; same proteoliposomes after cholesterol delivery by dialysis against cholesterol-loaded mβCD (up to 24 h); protein-to-lipid ratio 1:16,000; 30°C; relative FRET efficiency

B1: MBP-Ire1^(P501-K570, C552S) with a C-terminal cysteine (domain or fragment, Saccharomyces cerevisiae)
chain: PEDLEAYRKKIHEQISRELDEKNQNSLLLKFGSLVYRIIETGVFLLLFLIFSAILQRFKILPPLYVLLSKC
modifications: C-terminal cysteine modified by maleimide chemistry with ATTO514 (FRET donor), ATTO594 (FRET acceptor) or NEM (unlabeled)
notes: Ire1 from Saccharomyces cerevisiae, residues P501 to K570: the entire transmembrane region with the amphipathic helix and the short transmembrane helix; endogenous cysteine 552 replaced by serine; single cysteine introduced at the C-terminal end of the construct for labeling; Donor-labeled (ATTO514) and acceptor-labeled (ATTO594) copies of the same construct were co-reconstituted; also called …
B1: binds.
